Results as given in the DeepSol protein solubility set.

Assay: soluble on expression in E. coli; label from the status in PepcDB or PDB records
With “MAHHHHHHSLCKAFCSCYSYHYHHREKMGIKEYYDKLAKSYDKLYKNKYMRIVEREIIQKEIKDGDFVLDIGCGTGEQLKILNNAVGLDISLEMAKIAKNKTNKPVVVANAEFLPFKNKSFDKAISFFGALNHCNLKRALREVNRVLKDDGIFIFTVANIYDIKWIIKNILKGNFKKVKNAMKKRKGTITKVIDGEKIKVKTRFYDFKEVEDALKKEGFEVVYTFGTNITNSPLDKFIYKSFLKNFASYIGFVAKKVKNREG” the “soluble on expression in E. coli” value was “not soluble”. For “MAHHHHHHSLIDLHIHSNYSDGQGSVEEIARRAKERGLKAIAIVDHSIELPFGLTEKKARMREIEIENAASLYGIKIYSGIECSINAAGEIVLPDFDFDFIIASVHEFVYGQAYYERVIRCLESHDVDVLGHPFSPLFGFDGRLAEMDEKLLDVVEERGVAVELNSSHKSPQDEFLQLCRDRKIAYSIGSDAHSLSGVGEVGWSVEKAKRYMAGAKLFTPEG”, the “soluble on expression in E. coli” value was “not soluble”. In the case of “MAHHHHHHSLIISSLTNPNFKVGLPKVIAEVCDYLNTLDLNALENGRHDINDQIYMNVMEPETAEPSSKKAELHHEYLDVQVLIRGTENIEVGATYPNLSKYEDYNEADDYQLCADIDDKFTVTMKPKMFAVFYPYEPHKPCCVVNGKTEKIKKLVVKVPVKLIEG”, the “soluble on expression in E. coli” value is reported as “not soluble”. For “MAHHHHHHSLRVVSGEFGGRPLKTLDGKITRPTSDKVRGAIFNMIGPYFNGGRVLDLFAGSGGLAIEAVSRGMSAAVLVEKNRKAQAIIQDNIIMTKAENRFTLLKMEAERAIDCLTGRFDLVFLDPPYAKETIVATIEALAAKNLLSEQVMVVCETDKTVLLPKEIATLGIWKEKIYGISKVTVYVNEG”, the “soluble on expression in E. coli” value was “soluble”. With “MAHKSKSPYLMYPEKEPFPILNKHSHYDHLFEEMYELEEKGEILVFRITEEYRPKYVYTRTGRIKVIPTNKLWHHKSCGQCGNIPGYPASIFWFMNKFGLDYLNEPHQTSCTAWNYHGSGTSNPVALAAVWLRNMHQAWKTGYYPLIHCGTSFGSYKETREQLIFNKELREAVKPILKKLGRLTEDGRIVIPQEIVHYSEWVHAMRDGNSRPLRKRKESPKE” the “soluble on expression in E. coli” value was “not soluble”. With “MAHTPTMLAAAAPFMPEATGVDPALDALLAGLQAHPARIDPKYLYDALGSSLFAAITQLPEYYPTRCEAEIFATHLEAIARHTGPVRTLIDLGAGDCAKAERLLPCLRPQRYVPIDISTDFLGQAVARVRRAHPWLDVLPLGRDLNAGLDLPEAIDAQGRLFFYPGSSIGNLDPDAALALLASLRAQAGVSGGLLIGVDRVKARAIVEPAYDDALHLTGAFNLNLLRHVNSVLGSDFDVRDWTHVALYNEPRSRMEMHLQARSDIRVRWPGGQRRFQADERIHTENSYKYTIERFVDLLRRAGYGDIRYWSDARDWFSVFSARA” the “soluble on expression in E. coli” value was “soluble”. In the case of “MAIAPQQIQERLKQEQYQKFVVADIGNFPHCLAQTPEGIASGQRYQKYSTNSLSRTPPFSQWGAPQLLTPKSAQEYIKFAQQRNKKSSFKIDGEAVRVSECSNFAYHSAGVLLDDPQIRTQYDVAVIGSMHSNGRYLHNITLLVPKGSRLPQPPQQLTAEVFPIGTLIVDPWAVGMGHPPEQALAIPKEQFAYNRSLFPATVNYQSALDESLTSTRTGQLTPYTGTPSRTGRQEVRAESQFPGTRRPVSATIPGNFAAYHELWRNAFQEIMNDPRHQLHRNDVEYKKIHAIRTVLDDYTKGGNTWWAKFRRIFTFHWNRHHVKVVDDIVKEIDAGNYTTSRALVDRLDNLAISLGSKLNPKGTLKEQIGFIKIQEQNPVEEIENLSRPNLT”, the “soluble on expression in E. coli” value is reported as “not soluble”. For “MAIKGLDQAIDNLSRVRKNAIPAASAMTINRVATTAINQSSSQVARETKVRRKLVKERSRLKRATVRNPNAKIIVNRGDLPVIKLGIRMLGRRPNSILKAGQHRYQRAFIQRLKNGRWHVMQRVAGKNRYPIDVVKIPMAAPLKQAFDENVDRIRCERLPGELASALKQQLRIAIKR”, the “soluble on expression in E. coli” value was “not soluble”. For “MAILITGGAGYIGSHTCVELLNNNYKIIVVDNLSNSSIESLNRVKEITGKQFEFYKENVLNREKMNEIFLENNIEAVIHFAGFKAVGESTTTPLAYYYNNIISAIVLCDVMQKHNVKNFIFSSSATVYGIPKTLPITEEFPLSVTNPYGQTKLMIEQIMRDVAKADDEWSIALLRYFNPFGAHQSGRIGEDPNGIPNNLMPYVTQVAVGKLKELNIFGNDYPTKDGTGVRDYIHVVDLAKGHVKALEKVLKTKGIEAYNLGTGKGYSVLEMVKAFEKVSGKKIPYKVIGRRPGDVAICFADVSKAKRELGWEAEYGLEEMCVDSWRWQVNNKNGYQMI”, the “soluble on expression in E. coli” value was “not soluble”. For “MAILYSKMKRSVTIKLQPSKEQEKILFELADVGAKVWNRVNYLRRQEFFEGKLVDFNRTEKIVYEEFKQETGSATVQQIARKNAEAWRSFFTNCPSGSSQNHQTTLEHHHHHH”, the “soluble on expression in E. coli” value was “not soluble”. In the case of “MAIYILEDQIIQAKALEVLLTNILHSRNIYNETIHLFSRSDELLQVAHQDAQLNIFFLDIQMNNHIQAGFEVAKEIRKTDSESLIVFISTHTELVLTSYKYMVSALQFIQKNVDFLDFQKEVETCVDAYIQQKENIKTKSEYIIINLKASSIKMDINDIYFFQTEYDHRVSMVGKNFKREFYGTLSKIEQLHPDLIRVHQSIIINKKYASKLNYKTHLLTMRDGTEVPVSRRYYTQVKALFLT”, the “soluble on expression in E. coli” value is reported as “not soluble”. For “MAKDGGVSCLRRSEMIGIGIGELESPPLDSDQVHVLAVDDSLVDRIVIERLLRITSCKVTAVDSGWRALEFLGLDDDKAAVEFDRLKVDLIITDYCMPGMTGYELLKKIKESTSFKEVPVVIMSSENVMTRIDRCLEEGAEDFLLKPVKLADVKRLRSYLTRDVKVAAEGNKRKLTTPPPPPPLSATSSMESSDSTVESPLSMVDDEDSLTMSPESATSLVDSPMRSPGLA”, the “soluble on expression in E. coli” value was “not soluble”. With “MAKGGKSPKGKKITLNVAKNCIKITFDGRKRLDLSKMGITTFPKCILRLNEIDELDLSRNMIRKIPDSISKFQNLRWLDLHSNYIDKLPESIGQMTSLLFLNVSNNRLTTNGLPVELNQLKNIRTVNLGLNHLDSVPTTLGALKELHEVGLHDNLLTSIPAGISKLPKLKKLNVKRNPFPKPDESDMFVDSIKRLENLYLVEEKDLCSSCLQKCQQARDKLNKIRSMAPSAPRKAIFSNLVSPNSTAKESQEEWSV” the “soluble on expression in E. coli” value was “not soluble”. With “MAKGYWIAQVDVRDSERYKDYVSTAKPAFERFGANFLARGGSVTELEGTARARNVVIEFPSVQHAIDCYNSPEYQAAAKIRQEVADAEMMIVEGI” the “soluble on expression in E. coli” value was “soluble”. For “MAKIGENVPLLIDKAVDFMASSQAFREYLNKTPPRDYVPSEVPSESAPIYLQRLEYYRRLYRPKEEERG”, the “soluble on expression in E. coli” value was “not soluble”. In the case of “MAKINLTPKKIYEQEFKTSIRGYDKTEVDEFLDDVIKDYTVYIALVKELQEENAKLKAKATSAPASRPAYASATSEPSHATTNIASASNYDILKRISRLEKEVFGKQIVE”, the “soluble on expression in E. coli” value is reported as “not soluble”. For “MAKIYYDEDASLDILKDKVIAILGYGSQGHAHALNLRDSGLNVIIGLHEGSRSREKAKADGFEVYTPREAAKRADIIMFLIPDTVQPEVYKNEVEPELNSSKTLAFAHGFNIHFRQIVPPKDVDVFMVAPKGPGHLVRWMYTEGKGVPALVAIHQDASGTCKDKALAYAKGIGATRAGVIETTFKEETETDLFGEQMVLCGGVTALIKAGFETLVNAGYQPEVAYFECLHELKLIVDLIYEHGISGMRYSISDTAKYGDVTRGERIYKVVKPVMEKTLEEIQKGEFAREWILENKAGRPVYYALLERDREHLVEKVGEELRKMMPWLGKKELK”, the “soluble on expression in E. coli” value was “soluble”. For “MAKKKSVFTCQECGYQSPKYLGRCPNCSAWSSFVEEVEVQEVKNARVSLNGEKSRPTKLKDVSSINYSRTKTDMDEFNRVLGGGVVPGSLVLIGGDPGIGKSTLLLQVSTQLANKGTVLYVSGEESAEQIKLRSERLGDIDNEFYLYAETNMQSIRSEIEKIKPDFLIIDSIQTIMSPEVSSVQGSVSQVREVTAELMQLAKTNNIATFIVGHVTKEGTLAGPRMLEHMVDTVLYFEGERHHTFRILRAVKNRFGSTNEIGIFEMQSGGLVEVLNPSQVFLEERLDGATGSAIVVTMEGTRPILAEVQALVTPTVFGNAKRTTTGLDFNRVSLIMAVLEKRCGLLLQNQDAYLKSAGGVKLDEPAIDLAVAVAIASSYKEKPTNPQESFIGEIGLTGEIRRVTRIEQRINEASKLGFTKIYAPKNSLAGIEIPKGIDVIGVTTVSQVLKAVFST”, the “soluble on expression in E. coli” value was “not soluble”. For “MAKKLFAFLGIGDYKSVEYYFQNKKEGYKTEYIQEAITKLLNEQDLNVTVFVTAEARKKHWEPENNKGLESRLKKLNINCKAVNIPDGKANDDVWKIFTSVYSEIEFNDEIYVDVTHSLRNIPIIFMSVLNYAKVTKNCTIKGIFYGAYEAKENERAPIYDLTLFDQIGEWSSGVEQLLTTGECEMFCSTVEKTLDPLLREAKGKDELIKLVKKCSKLIKEFYTDLKLVRGKSVLEDGRKLYQVLCEIKALNTEKHITMQPFFHILERVENQVAFFQNENLIENILECVKLCKKFGQYQQAYTFLRENIINYVCINTGLDWKKEDPDRLKAEELIGKLYMRKIKKVQIEVSEDIKSILENGEDFICDDAIELFGELIEFRNDLDHAQFRMINPSKDKITCKLDSFIERFEKYYISK”, the “soluble on expression in E. coli” value was “not soluble”. In the case of “MAKKTSSGRGKLPPGPTPLPVIGNILQIGIKDISKSLTNLSKVYGPVFTLYFGLKPIVVLHGYEAVKEALIDLGEEFSGRGIFPLAERANRGFGIVFSNGKKWKEIRRFSLMTLRNFGMGKRSIEDRVQEEARCLVEELRKTKASPCDPTFILGCAPCNVICSIIFHKRFDYKDQQFLNLMEKLNENIKILSSPWIQICNNFSPIIDYFPGTHNKLLKNVAFMKSYILEKVKEHQESMDMNNPQDFIDCFLMKMEKEKHNQPSEFTIESLENTAVDLFGAGTETTSTTLRYALLLLLKHPEVTAKVQEEIERVIGRNRSPCMQDRSHMPYTDAVVHEVQRYIDLLPTSLPHAVTCDIKFRNYLIPKGTTILISLTSVLHDNKEFPNPEMFDPHHFLDEGGNFKKSKYFMPFSAGKRICVGEALAGMELFLFLTSILQNFNLKSLVDPKNLDTTPVVNGFASVPPFYQLCFIPIHHHH”, the “soluble on expression in E. coli” value is reported as “soluble”. With “MAKKVAICTLLYSRDYLPGALTLAYQLQKLLKHAVVEDEITLCLLIEKKLFGDEFKPQEIALIRSLFKEIIIIEPLKDQEKSIEKNKANLELLKRPELSHTLLKARLWELVQFDQVLFLDADTLPLNKEFFEILRLYPEQTRFQIAAVPDIGWPDMFNTGVLLLIPDLDMATSLQDFLIKTVSIDGADQGIFNQFFNPICNYSKEVLHKVSPLMEWIRLPFTYNVTMPNYGYQSSPAMNFFQQHIRLIHFIGTFKPWSRNTTDYDDHYYQLWRSTQRELYSECHLSNYFTHLQLGNIETETNFYHEPPCLQDLLNHGKRENQKHVDLDITSVDRNASQKSTAEKHDIEKPTSKPQSAFKFDWESTDYLDRVQRAFPKPDT” the “soluble on expression in E. coli” value was “soluble”. For “MAKLRPYYEESQSAYDISDDFFALFLDPTWVYTCAYFERDDMTLEEAQLAKVDLALDKLNLEPGMTLLDVGCGWGGALVRAVEKYDVNVIGLTLSRNHYERSKDRLAAIGTQRRAEARLQGWEEFEENVDRIVSFEAFDAFKKERYLTFFERSYDILPDDGRMLLHSLFTYDRRWLHEQGIALTMSDLRFLKFLRESIFPGGELPSEPDIVDNAQAAGFTIEHVQLLQQHYARTLDAWAANLQAARERAIAVQSEEVYNNFMHYLTGCAERFRRGLINVAQFTMTK”, the “soluble on expression in E. coli” value was “soluble”. For “MAKLTRLGDLERAVMDHLWSRTEPQTVRQVHEALSARRDLAYTTVMTVLQRLAKKNLVLQIRDDRAHRYAPVHGRDELVAGLMVDALAQAEDSGSRQAALVHFVERVGADEADALRRALAELEAGHGNRPPAGAATET”, the “soluble on expression in E. coli” value was “soluble”. With “MAKPSDSADICQAPVQTAQAPLPKDSALDDLIGYAMRRAQLKLFQNLIGRLSAHDLRPAQFSALAIIEQTPGLMQADLAKALAIEPPQVVPLLNKLEERALAVRVRCKPDKRSYGIFLSKTGETLLRELKQIAVDSDLDSTSALDNQERNDLLRLLKKVYQS” the “soluble on expression in E. coli” value was “not soluble”.
